Test results: patent US20100087625
Positions count from the first letter of the chain named.

What was measured:
[1] = tested on: T1, S1proBMP-2 (human proBMP-2 with the S1 furin cleavage site REKR replaced by TNGIEGRALDP; constructs IND2340 and IND2341)
T1 sequence: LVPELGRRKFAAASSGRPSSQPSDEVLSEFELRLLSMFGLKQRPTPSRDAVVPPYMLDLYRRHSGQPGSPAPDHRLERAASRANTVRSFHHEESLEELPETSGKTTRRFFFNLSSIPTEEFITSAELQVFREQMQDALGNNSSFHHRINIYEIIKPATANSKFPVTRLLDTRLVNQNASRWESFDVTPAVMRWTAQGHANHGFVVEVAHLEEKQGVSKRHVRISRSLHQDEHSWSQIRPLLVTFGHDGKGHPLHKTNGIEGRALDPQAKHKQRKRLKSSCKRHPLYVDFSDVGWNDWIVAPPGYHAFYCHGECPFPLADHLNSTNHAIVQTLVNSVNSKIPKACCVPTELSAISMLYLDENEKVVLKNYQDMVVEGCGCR

[2] = tested on: T2, S1S2proBMP-2 (human proBMP-2 with S1 site REKR replaced by TNGIEGRALDP and S2 site RISR mutated to AISR; construct IND2372)
T2 sequence: T1 sequence with R222A

[3] = tested on: T3, recombinant human proBMP-2 (wild type, produced by CHO-BMP-2 cells)
T3 sequence: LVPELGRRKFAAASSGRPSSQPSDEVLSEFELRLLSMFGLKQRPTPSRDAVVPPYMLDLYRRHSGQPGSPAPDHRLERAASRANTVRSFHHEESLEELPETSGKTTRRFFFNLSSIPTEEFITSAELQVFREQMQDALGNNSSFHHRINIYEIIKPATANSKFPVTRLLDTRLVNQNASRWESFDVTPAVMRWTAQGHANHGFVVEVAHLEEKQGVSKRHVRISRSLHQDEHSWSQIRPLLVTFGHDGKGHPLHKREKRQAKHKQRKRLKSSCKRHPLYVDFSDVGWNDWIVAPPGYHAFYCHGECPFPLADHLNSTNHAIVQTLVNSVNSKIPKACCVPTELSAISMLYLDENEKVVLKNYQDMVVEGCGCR

Substance | Western blot after digestion with Factor Xa [1] | Western blot after digestion with Factor Xa [2] | Western blot after in vitro digestion with furin [3]
Factor Xa (Restriction Protease Factor Xa Cleavage and Removal Kit, Roche Applied Science Cat #1 644 777) | Cleavage of mutant BMPs S1 proBMP and S1 S2proBMP-2 by Factor Xa produced a mature BMP-2 that remained a dimer under non-reducing conditions with an apparent molecular weight of 30-32 KD | Cleavage of mutant BMPs S1 proBMP and S1 S2proBMP-2 by Factor Xa produced a mature BMP-2 that remained a dimer under non-reducing conditions with an apparent molecular weight of 30-32 KD | –
furin (Sigma) | – | – | the purified CHO proBMP-2 monomers migrated at approximately 55 kDa were cleaved after 1 hr incubation with furin
